The values that follow come from paper PMC3240820.

For this assay, the target named is C-terminal His-tagged Caskin1 SAM mutant G520E (human) (UniProt Q8WXD9). The assay can be described thus: SPR. (In general: In SPR one partner is held on a chip, and binding of the other changes the refractive index at the surface.)
Sequence of C-terminal His-tagged Caskin1 SAM mutant G520E (human) (Q8WXD9 470-605 G520E): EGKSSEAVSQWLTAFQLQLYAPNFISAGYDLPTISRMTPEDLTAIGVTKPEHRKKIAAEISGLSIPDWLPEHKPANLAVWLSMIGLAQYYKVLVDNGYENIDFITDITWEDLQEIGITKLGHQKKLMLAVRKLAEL

Consider “Caskin1 SAM mutant G566K (from UniProt Q8WXD9 470-605) (domain or fragment)”, for which the Kd (usually the free concentration of one partner at which half of the binding sites on the other are occupied at equilibrium, for simple one-to-one binding) was determined as 22 µM.
